Reference: US20150005368
pKd: −log10 of the molar value.

Biological target: ERBB2 (HER2) (Homo sapiens?) (UniProt P04626)
Test: filter
Details: for pKd: same buffer, 37 C

## ATGTTAGAGTTTGCCTGAGTGCCTCGCAAGGGCGTAACAA [AP001-24 (1194-34, #11 short)]
6 (n) = NapdU [n positions 2,4,5,10,11,12,16,20,24,35 = modified dU], affinity for ERBB2 relative to EGFR, curve in figure only
  selectivity ratio (ERBB2 over EGFR affinity): > 1000 fold

## GAGTGACCGTCTGCCTGATGTTAGAGTTTGCCTGAGTGCCTCGCAAGGGCGTAACAACAGCCACACCACCAGCC [clone #11 (1194-2, 9-ER-N-B12_C06)]
6 (n) = NapdU [n positions 19,21,22,27,28,29,33,37,41,52 = modified dU], Bmax 0.29
  pKd: 8.51

## GAGTGACCGTCTGCCTGGTCTGAACACCGAGATTAGCCGAACGAACGGTATGGACGTCAGCCACACCACCAGCC [clone #33 (9-ER-N-F02_A09)]
6 (n) in core = NapdU [n positions 19,21,33,34,49,51,57 = modified dU], Bmax only 0.03
  pKd: 8.01

## GAGTGACCGTCTGCCTGGTTAGACTGAACGCACTGAGGGCCGCAGCCTATCTGAAGGCAGCCACACCACCAGCC [clone #10 (9-ER-N-B09_B06)]
6 (n) in core = NapdU [n positions 19,20,25,34,48,50,52 = modified dU], Bmax 0.25
  pKd: 8.43
